Data reported in US20260250410A1, “ANTIBODY AND USE THEREOF” (SICHUAN HUIYU PHARMACEUTICAL CO., LTD., priority 2022, published 2026).

B1: 1CP-153: humanized anti-CDCP1 antibody produced by 8C9; VH SEQ ID NO: 345, VL SEQ ID NO: 354 (antibody, V domains shown)
VH: EVQLVESGGGLVQPGRSLRLSCTTSGLTFTHYHMSWVRQAPGKGPEWVAIIRNKAYGYTTDYSASVRGRFTISRDDSKSILYLQMNSLKTEDTAVYYCVREGGYGYDGTFAYWGQGTLVTVSS
VL: DIQMTQSPSSLSASVGDRVTITCRASESVDNYGISFMNWFQQKPGQAPKLLIYAASNQGSGVPSRFSGSGSGTDFTLTISSMQPEDFATYYCQQSKEVPRTFGGGTKVEIK
modifications: humanized antibody 8C9 heavy chain variable region 03; humanized antibody 8C9 light chain variable region 01
B2: 1CP-154: humanized anti-CDCP1 antibody produced by 8C9; VH SEQ ID NO: 346, VL SEQ ID NO: 354 (antibody, V domains shown)
VH: EVQLVESGGGLVQPGRSLRLSCTTSGLTFTHYHMSWVRQPPGKAPEWVAIIRNKAYGYTTDYSASVRGRFTISRDDSKSILYLQMNSLKTEDTAVYYCVREGGYGYDGTFAYWGQGTLVTVSS
VL: DIQMTQSPSSLSASVGDRVTITCRASESVDNYGISFMNWFQQKPGQAPKLLIYAASNQGSGVPSRFSGSGSGTDFTLTISSMQPEDFATYYCQQSKEVPRTFGGGTKVEIK
modifications: humanized antibody 8C9 heavy chain variable region 04; humanized antibody 8C9 light chain variable region 01
B3: 1CP-155: humanized anti-CDCP1 antibody produced by 8C9; VH SEQ ID NO: 343, VL SEQ ID NO: 355 (antibody, V domains shown)
VH: EVQLVESGGGLVQPGRSLRLSCTASGLTFTHYHMSWFRQAPGKGLEWVAIIRNKAYGYTTDYSASVRGRFTISRDDSKSILYLQMNSLKTEDTAVYYCVREGGYGYDGTFAYWGQGTLVTVSS
VL: DIQMTQSPSSLSASVGDRVTITCRASESVDNYGISFMNWFQQKPGQPPKLLIYAASNQGSGVPSRFSGSGSGTDFTLTISSMQPEDFATYYCQQSKEVPRTFGGGTKVEIK
modifications: humanized antibody 8C9 heavy chain variable region 01; humanized antibody 8C9 light chain variable region 02
B4: 1CP-156: humanized anti-CDCP1 antibody produced by 8C9; VH SEQ ID NO: 344, VL SEQ ID NO: 355 (antibody, V domains shown)
VH: EVQLVESGGGLVQPGRSLRLSCTTSGLTFTHYHMSWVRQAPGKGLEWVAIIRNKAYGYTTDYSASVRGRFTISRDDSKSILYLQMNSLKTEDTAVYYCVREGGYGYDGTFAYWGQGTLVTVSS
VL: DIQMTQSPSSLSASVGDRVTITCRASESVDNYGISFMNWFQQKPGQPPKLLIYAASNQGSGVPSRFSGSGSGTDFTLTISSMQPEDFATYYCQQSKEVPRTFGGGTKVEIK
modifications: humanized antibody 8C9 heavy chain variable region 02; humanized antibody 8C9 light chain variable region 02
B5: 1CP-158: humanized anti-CDCP1 antibody produced by 8C9; VH SEQ ID NO: 346, VL SEQ ID NO: 355 (antibody, V domains shown)
VH: EVQLVESGGGLVQPGRSLRLSCTTSGLTFTHYHMSWVRQPPGKAPEWVAIIRNKAYGYTTDYSASVRGRFTISRDDSKSILYLQMNSLKTEDTAVYYCVREGGYGYDGTFAYWGQGTLVTVSS
VL: DIQMTQSPSSLSASVGDRVTITCRASESVDNYGISFMNWFQQKPGQPPKLLIYAASNQGSGVPSRFSGSGSGTDFTLTISSMQPEDFATYYCQQSKEVPRTFGGGTKVEIK
modifications: humanized antibody 8C9 heavy chain variable region 04; humanized antibody 8C9 light chain variable region 02
B6: 1CP-159: humanized anti-CDCP1 antibody produced by 8C9; VH SEQ ID NO: 343, VL SEQ ID NO: 356 (antibody, V domains shown)
VH: EVQLVESGGGLVQPGRSLRLSCTASGLTFTHYHMSWFRQAPGKGLEWVAIIRNKAYGYTTDYSASVRGRFTISRDDSKSILYLQMNSLKTEDTAVYYCVREGGYGYDGTFAYWGQGTLVTVSS
VL: DIQMTQSPSSLSASVGDRVTITCRASESVDNYGISFMNWFQQKPGQPPKLLIYAASNQGSGVPSRFSGSGSGTDFTLTISSMQPEDFATYFCQQSKEVPRTFGGGTKVEIK
modifications: humanized antibody 8C9 heavy chain variable region 01; humanized antibody 8C9 light chain variable region 03
B7: 1CP-160: humanized anti-CDCP1 antibody produced by 8C9; VH SEQ ID NO: 344, VL SEQ ID NO: 356 (antibody, V domains shown)
VH: EVQLVESGGGLVQPGRSLRLSCTTSGLTFTHYHMSWVRQAPGKGLEWVAIIRNKAYGYTTDYSASVRGRFTISRDDSKSILYLQMNSLKTEDTAVYYCVREGGYGYDGTFAYWGQGTLVTVSS
VL: DIQMTQSPSSLSASVGDRVTITCRASESVDNYGISFMNWFQQKPGQPPKLLIYAASNQGSGVPSRFSGSGSGTDFTLTISSMQPEDFATYFCQQSKEVPRTFGGGTKVEIK
modifications: humanized antibody 8C9 heavy chain variable region 02; humanized antibody 8C9 light chain variable region 03
B8: 1CP-161: humanized anti-CDCP1 antibody produced by 8C9; VH SEQ ID NO: 345, VL SEQ ID NO: 356 (antibody, V domains shown)
VH: EVQLVESGGGLVQPGRSLRLSCTTSGLTFTHYHMSWVRQAPGKGPEWVAIIRNKAYGYTTDYSASVRGRFTISRDDSKSILYLQMNSLKTEDTAVYYCVREGGYGYDGTFAYWGQGTLVTVSS
VL: DIQMTQSPSSLSASVGDRVTITCRASESVDNYGISFMNWFQQKPGQPPKLLIYAASNQGSGVPSRFSGSGSGTDFTLTISSMQPEDFATYFCQQSKEVPRTFGGGTKVEIK
modifications: humanized antibody 8C9 heavy chain variable region 03; humanized antibody 8C9 light chain variable region 03
B9: 1CP-162: humanized anti-CDCP1 antibody produced by 8C9; VH SEQ ID NO: 346, VL SEQ ID NO: 356 (antibody, V domains shown)
VH: EVQLVESGGGLVQPGRSLRLSCTTSGLTFTHYHMSWVRQPPGKAPEWVAIIRNKAYGYTTDYSASVRGRFTISRDDSKSILYLQMNSLKTEDTAVYYCVREGGYGYDGTFAYWGQGTLVTVSS
VL: DIQMTQSPSSLSASVGDRVTITCRASESVDNYGISFMNWFQQKPGQPPKLLIYAASNQGSGVPSRFSGSGSGTDFTLTISSMQPEDFATYFCQQSKEVPRTFGGGTKVEIK
modifications: humanized antibody 8C9 heavy chain variable region 04; humanized antibody 8C9 light chain variable region 03
B10: 1CP-112: humanized anti-CDCP1 antibody produced by 8E5; VH SEQ ID NO: 347, VL SEQ ID NO: 357 (antibody, V domains shown)
VH: QVQLVQSGSELKKPGASVKVSCKASGYTLTDFSMHWVRQAPGQGLEWMGWINTETGAPTYADDFKGRFVFSLDTSVSTAYLQISSLKAEDTAVYYCSRGRDYDPHFDYWGQGTLVTVSS
VL: EIVLTQSPATLSLSPGERATLSCRASQSISDFLHWYQQKPGQAPRLLIKYASQSISGIPARFSGSGPGSDFTLTISSVEPEDFAVYYCQSAHSFPYTFGQGTKLEIK
modifications: humanized antibody 8E5 heavy chain variable region 01; humanized antibody 8E5 light chain variable region 01
B11: 1CP-113: humanized anti-CDCP1 antibody produced by 8E5; VH SEQ ID NO: 348, VL SEQ ID NO: 357 (antibody, V domains shown)
VH: QVQLVQSGSELKKPGASVKVSCKASGYTLTDFSMHWVRQAPGQGLEWMGWINTETGAPTYADDFKGRFVLSLDTSVSTAYLQISSLKAEDTAVYYCSRGRDYDPHFDYWGQGTLVTVSS
VL: EIVLTQSPATLSLSPGERATLSCRASQSISDFLHWYQQKPGQAPRLLIKYASQSISGIPARFSGSGPGSDFTLTISSVEPEDFAVYYCQSAHSFPYTFGQGTKLEIK
modifications: humanized antibody 8E5 heavy chain variable region 01; humanized antibody 8E5 light chain variable region 01

molecular target: T1, HuCDCP1-C (Homo sapiens, UniProt Q9H5V8); assay: Caterra affinity of humanized anti-CDCP1 antibodies; type: binding; conditions: HuCDCP1-C 2 μg/ml immobilized
T1 construct: made in house; host or cells: HEK-293T
T1 sequence (Q9H5V8 30-667): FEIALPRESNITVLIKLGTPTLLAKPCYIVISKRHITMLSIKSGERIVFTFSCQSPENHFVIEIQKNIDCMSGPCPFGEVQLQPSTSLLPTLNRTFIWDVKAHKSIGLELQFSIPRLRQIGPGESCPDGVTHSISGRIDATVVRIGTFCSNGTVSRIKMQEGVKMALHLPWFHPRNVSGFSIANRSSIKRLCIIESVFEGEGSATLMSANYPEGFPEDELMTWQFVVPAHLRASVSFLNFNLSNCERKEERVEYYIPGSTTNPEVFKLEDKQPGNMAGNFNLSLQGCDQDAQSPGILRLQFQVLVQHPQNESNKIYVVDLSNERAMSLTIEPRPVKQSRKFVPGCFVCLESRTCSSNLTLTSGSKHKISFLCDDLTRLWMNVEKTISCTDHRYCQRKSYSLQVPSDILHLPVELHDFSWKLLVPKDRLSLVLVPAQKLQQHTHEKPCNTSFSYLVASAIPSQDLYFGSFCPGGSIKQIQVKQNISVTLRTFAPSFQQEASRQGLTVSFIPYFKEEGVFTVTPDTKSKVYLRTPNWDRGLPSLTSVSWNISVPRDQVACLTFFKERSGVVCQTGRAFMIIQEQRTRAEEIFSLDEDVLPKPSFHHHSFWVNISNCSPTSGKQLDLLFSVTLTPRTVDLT
Description: The humanized anti-CDCP1 antibodies obtained from Example 11 were subjected to gene cloning, constructed into pTT5 expression vector for a small amount of expression in CHO cells (Expi-CHOS: Gibco A29127), and purified with an Fc affinity column (AT Protein A Diamond Plus. No. AA402312). Antibody purity was analyzed by HPLC and determined by Nanodrop. High-throughput affinity assay was carried out for a small amount of antibodies by Caterra.

Question: For B1, which “ka” value is on record?
Answer: The value was 108000 M⁻¹ s⁻¹.

Question: What about the “kd” value of the same molecule?
Answer: Its value is 0.000388 s⁻¹.

Question: What does the source list for B2?
Answer: ka: 118000 M⁻¹ s⁻¹; kd: 0.000346 s⁻¹

Question: For B3, which “ka” value is on record?
Answer: The value was 15800 M⁻¹ s⁻¹.

Question: And the “kd” value?
Answer: The value was 0.000579 s⁻¹.

Question: Which “ka” value does the source give for B4 here?
Answer: Its value is 123000 M⁻¹ s⁻¹.

Question: And the “kd” value?
Answer: The value was 0.000441 s⁻¹.

Question: B5 was tested. Which “ka” value did it give?
Answer: The value was 109000 M⁻¹ s⁻¹.

Question: What about the “kd” value of the same molecule?
Answer: Its value is 0.000321 s⁻¹.

Question: What does the source list for B6?
Answer: ka: 18000 M⁻¹ s⁻¹; kd: 0.000767 s⁻¹

Question: With B7 as the molecule, how does the “ka” value read?
Answer: Its value is 110000 M⁻¹ s⁻¹.

Question: And the “kd” value?
Answer: The value was 0.00042 s⁻¹.

Question: Which results are given for B8?
Answer: ka: 114000 M⁻¹ s⁻¹; kd: 0.000365 s⁻¹

Question: Which results are given for B9?
Answer: ka: 113000 M⁻¹ s⁻¹; kd: 0.000305 s⁻¹

Question: With B10 as the molecule, how does the “ka” value read?
Answer: Its value is 136000 M⁻¹ s⁻¹.

Question: What about the “kd” value of the same molecule?
Answer: Its value is 5e-05 s⁻¹.

Question: Which results are given for B11?
Answer: ka: 143000 M⁻¹ s⁻¹; kd: 5.9e-05 s⁻¹
